From paper PMC6954420, “Heterochromatin protein 1α interacts with parallel RNA and DNA G-quadruplexes” come the findings set out here.

The target of data set [1] is T1, HP1α (mouse, UniProt Q61686 1-191). The experiment in a line: BLI; pH 7; BLI: 100 mM KCl, 50 mM NaCl, 20 mM Na phosphate, pH 8 (G4) or pH 7 (i-motif, dsDNA), room temp, 500 nM oligo or titration; EMSA: 50 mM Tris-HCl pH 7.5, 100 mM KCl, 0.5 mM EDTA, 0.5 mM DTT, 0.1 mg/ml BSA, room temp 1 h. Particulars: protein: recombinant, tags: N-terminal His6 (pPROEX HTb), chain copies: 2. In general terms: In BLI a coated tip is dipped into the sample, and binding shifts an interference pattern.
T1 sequence (Q61686 whole entry): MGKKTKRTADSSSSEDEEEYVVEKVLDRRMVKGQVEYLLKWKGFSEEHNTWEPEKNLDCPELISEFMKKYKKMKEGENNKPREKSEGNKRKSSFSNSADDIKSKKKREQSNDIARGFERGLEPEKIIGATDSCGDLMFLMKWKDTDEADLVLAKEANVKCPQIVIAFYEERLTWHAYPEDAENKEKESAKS

In data set [2] the target is T1, HP1α. The experiment in a line: BLI; K+; BLI: 100 mM KCl, 50 mM NaCl, 20 mM Na phosphate, pH 8 (G4) or pH 7 (i-motif, dsDNA), room temp, 500 nM oligo or titration; EMSA: 50 mM Tris-HCl pH 7.5, 100 mM KCl, 0.5 mM EDTA, 0.5 mM DTT, 0.1 mg/ml BSA, room temp 1 h. The note with it: protein: recombinant, tags: N-terminal His6 (pPROEX HTb), chain copies: 2.
The target of data set [3] is T1, HP1α. As to the kind of experiment: BLI; BLI: 100 mM KCl, 50 mM NaCl, 20 mM Na phosphate, pH 8 (G4) or pH 7 (i-motif, dsDNA), room temp, 500 nM oligo or titration; EMSA: 50 mM Tris-HCl pH 7.5, 100 mM KCl, 0.5 mM EDTA, 0.5 mM DTT, 0.1 mg/ml BSA, room temp 1 h. Particulars: protein: recombinant, tags: N-terminal His6 (pPROEX HTb), chain copies: 2.
For data set [4], the target named is HP1α 3K-A (mouse, UniProt Q61686 1-191, K104A;K105A;K106A). As to the kind of experiment: BLI; K+; BLI: 100 mM KCl, 50 mM NaCl, 20 mM Na phosphate, pH 8 (G4) or pH 7 (i-motif, dsDNA), room temp, 500 nM oligo or titration; EMSA: 50 mM Tris-HCl pH 7.5, 100 mM KCl, 0.5 mM EDTA, 0.5 mM DTT, 0.1 mg/ml BSA, room temp 1 h. The note with it: protein: recombinant; tags: N-terminal His6 (pPROEX HTb); chain copies: 2; antiparallel G4.
Chain of HP1α 3K-A (Q61686 whole entry K104A/K105A/K106A): as the sequence (Q61686 whole entry) above, with K104A, K105A, K106A counted along it

Data set [5] deals with HP1β (mouse, UniProt P83917 1-185). The data set is described as above. Particulars: protein: recombinant; tags: N-terminal His6 (pPROEX HTb); chain copies: 2; antiparallel G4.
Chain of HP1β (P83917 whole entry): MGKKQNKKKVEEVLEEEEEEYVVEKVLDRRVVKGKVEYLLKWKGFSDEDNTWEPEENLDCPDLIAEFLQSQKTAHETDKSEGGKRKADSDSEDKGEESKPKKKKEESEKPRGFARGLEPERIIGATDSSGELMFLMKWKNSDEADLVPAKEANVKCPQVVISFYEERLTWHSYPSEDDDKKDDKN
For data set [6], the target named is HP1γ (mouse, UniProt P23198 1-183). The description is as above. The note with it: protein: recombinant; tags: N-terminal His6 (pPROEX HTb); chain copies: 2; antiparallel G4.
Chain of HP1γ (P23198 whole entry): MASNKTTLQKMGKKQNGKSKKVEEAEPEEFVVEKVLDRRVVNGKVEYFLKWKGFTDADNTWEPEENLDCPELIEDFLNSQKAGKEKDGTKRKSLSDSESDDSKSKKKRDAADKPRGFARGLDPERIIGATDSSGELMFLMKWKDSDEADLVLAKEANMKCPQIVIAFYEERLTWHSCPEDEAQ

As a reminder, the Kd is the free concentration of one partner at which half of the binding sites on the other are occupied at equilibrium, for simple one-to-one binding.

B1: cTEL45 (structured_DNA)
DNA: CCCTAACCCTAACCCTAACCCTAACCCTAACCCTAACCCTAACCC
Consider B1, for which, in data set [1] (i-motif (partial at pH 7)), the binding result is given as “no binding”.

B2: kras (structured_DNA)
DNA: AGGGCGGTGTGGGAAGAGGGAAGAGGGGGAGG
For the molecule B2, the dissociation constant (Kd) in data set [2] (parallel G4) came out at 68.8 ± 0.7 nM.

B3: ckit2 (structured_DNA)
DNA: GGGCGGGCGCCAGGGAGGGG
B3: the dissociation constant (Kd) in data set [2] (parallel G4) worked out at 199 ± 3 nM.

B4: src16 (structured_DNA)
DNA: GGGCTGCTGGGACTGGTTGGGAGGGCACTCTGGGG
With B4, the Kd in data set [2] (antiparallel G4) was found to be 1630 ± 1700 nM.

B5: Thy45 (ssDNA)
DNA: TTTTTTTTTTTTTTTTTTTTTTTTTTTTTTTTTTTTTTTTTTTTT
Turning to B5, the binding result in data set [3] (unstructured) was “no binding”.

B6: Oligo G (structured_DNA)
DNA: TGGGTTAGGGTTAGGGTTAGGGTGGGTTAGGGTTAGGGTTAGGGT
In the case of B6, in data set [2] (antiparallel or hybrid G4), the binding result is given as “no binding”.

B7: gTEL45 (structured_DNA)
DNA: GGGTTAGGGTTAGGGTTAGGGTTAGGGTTAGGGTTAGGGTTAGGG
With B7, the binding result in data set [2] (antiparallel G4), in data set [4], in data set [5] and in data set [6] was “no binding” in each case.

B8: LL3rep (structured_DNA)
DNA: TCGTTCCGTTTTTCGTTCCGTTTTTCGTTCCGTTTTTCGTTCCGT
Turning to B8, the binding result in data set [1] (mini-i-motif) is on record as “no binding”.

B9: Oligo C (structured_DNA)
DNA: TGGGTTAGGGTGGGTTAGGGTGGGTTAGGGTGGGTTAGGGT
As to B9, in data set [2] (parallel G4), the dissociation constant (Kd) stood at 78.2 ± 0.3 nM.

B10: Oligo A (structured_DNA)
DNA: TGGGTGGGTGGGTGGGTGGGTGGGTGGGTGGGT
With B10, the dissociation constant (Kd) in data set [2] (parallel G4) stood at 86.8 ± 0.2 nM.

B11: Oligo D (structured_DNA)
DNA: TGGGTGGGTTAGGGTGGGTGGGTGGGTTAGGGTGGGT
In the case of B11, the dissociation constant Kd in data set [2] (parallel G4) came out at 52.6 ± 1.1 nM.

B12: src2 (structured_DNA)
DNA: GGGGCAGCTGGGTCGCTCGGGGAACGGGG
On to B12, for which the dissociation constant (Kd) in data set [2] (antiparallel G4) turned out to be 410 ± 20 nM.

B13: Oligo B (structured_DNA)
DNA: TGGGTTGGGTTGGGTTGGGTTGGGTTGGGTTGGGTTGGGT
B13: in data set [2] (parallel G4, monomer-dimer equilibrium), the dissociation constant Kd came to 69.1 ± 0.9 nM.

B14: src3 (structured_DNA)
DNA: GGGAGGGAGGGCTGGGGG
B14: the Kd in data set [2] (parallel G4) is 140 ± 2 nM.

B15: bcl2 (structured_DNA)
DNA: AGGGGCGGGCGCGGGAGGAAGGGGGCGGGAGCGGGGCTG
Take B15: in data set [2] (parallel G4), the dissociation constant Kd was 93.5 ± 1.6 nM.

B16: c-myc2 (structured_DNA)
DNA: GGGTGGGTAGGGTGGG
In the case of B16, in data set [2] (parallel G4, at least dimer on native PAGE), the Kd turned out to be 610 ± 40 nM.

B17: Oligo F (structured_DNA)
DNA: TGGGTTAGGGTTAGGGTGGGTGGGTTAGGGTTAGGGTGGGT
For B17, the Kd in data set [2] (parallel G4) was 61.7 ± 1.5 nM.

B18: rC-rich22 (ssRNA)
RNA: ACCCAAUCCCAAUCCCAAUCCC
On to B18, for which, in data set [3], the binding result is recorded as “no binding”.

B19: Oligo E (structured_DNA)
DNA: TGGGTGGGTTAGGGTTAGGGTGGGTGGGTTAGGGTTAGGGT
For the molecule B19, in data set [2] (parallel G4), the equilibrium dissociation constant (Kd) is 43.8 ± 1 nM.
